Results: the DeepSol protein solubility set

Test: soluble on expression in E. coli; label from the status in PepcDB or PDB records

Sequence | soluble on expression in E. coli
MNTKQSNSHSTPSTFEGAQIRQGKASQCKTLMVQGTTSDAGKTTLVAGLCRVFADLQVKVAPFKPQNMALNSAVTPCGGEIGRAQALQAKAARLALDVDFNPILLKPNSDTGAQVIVHGKALMHRSSSNMEASEYQDYKKVAMQAVLSSHQRLTQQYDLVVVEGAGSPAEINLRKGDIANMGFAEAVDCPVLIIADIDKGGVFAQLVGTLMLLSQSEQDRVVGFVINRFRGDIKLLESGLTWLEERTNKPVLGVLPYLHGLDISSEDALVTQQALV | not soluble
MSLNIQAIDTRHGTANQHSFSNGNCLPYTGVPFGMNFYAPQTTDQKGSWWFHPEDRTFQGYRVTHQPSPWMGDFSHLLMTPVSGSLSELSLFHAQSSYRPEESLFSPVEINLTQLRYQITSQLIPSMYGGILTIDYQQKDNHLLLTLPGRYQVKQLDDHQVAVKVINYSGCEDPDFSFYFVLHFEQPLTKWFAPSSGEDGKILLSFGNIAQQVVHFSSSFISEKQAQLNLAREISLRSTEMLQQGIADWHNYFDRLKVTHENPEHTKTFYHTLYRTFLFPQTFYELDENQQPIHYDTFSQTVRPGVLYTNNGFWDTYKTVYPLFSLIAQEKYEEMLEGFLNSYNETGFLPKWLSPDERGLMPGTLIDAVIADAAVKKIRPDLMPQFLEAMKKGATQQSERENYGRQGTLDYLKYGYVPSTYHESVNHTLDYAYSDFCISQVAKTLNDSETATFYRQQALNYQQLFNPETGFMQAKDTEGNFRPDFLDIRWGKDYAEGSAWQSSFAVYQDFAGLIKLYGSELAFEKKLIQLCNQAPNFNVEGYGFEIHEMSEMAAIDFGQLAISNQPSFHYPFLFSYIGKPEMAQPLLKQLMQTFDASPTGYPGDEDNGSMSAWYIFNSLGFYPVTPGTGEYVIGMPLVQTAEVKLSNGKQLTIQTSPNKVQQQFIHEIQLNQEKHTAPYFTHQELLNGGTLDYQLGIVPNPQNTAERPFSLSTEKEGGSHHHHHH | soluble
MGHHHHHHSHMPVIQTESEHKPPVNGSYFAHVNPADGGCLLEKYSEKCHDFQCALLANLFASEGQPGKVIEVKAKRRTGPLNFVTCMRETLEKHYGNKPIGMGGTFIIQKGKVKSHIMPAEFSSCPLNSDEEVNKWLHFYEMKAPLVCLPVFVSRDPGFDLRLEHTHFFSRHGEGGHYHYDTTPDIVEYLGYFLPAEFLYRIGQPKETHSIGRD | not soluble
MEVPEIEKQIGINLYSTDTTGLGGQLRQEIEDFIVKEITNREEGEEGKYLIVELTKRDWDTHHLTRTLSRILQVSQKRISVAGTKNKRALTTQKISIFDTDASEIEKIHLKDIELKVLGRSRKSVELGDLWGNDFRITVRNIENSPEETEALLKKTTDEILAQGGVPNFFGIQRFGSVRPVTHLVGKAIVEGNFEKAALLYIAEPFPEEPEETKNARQFVKDTLDFKEGLKTYPLRLGHERAMMNHLIANPEDYSGSFRVLPQNLYRMFVHGYQSYIYNIILCRRIEAGIPLNRAVEGDIVCFRNEVGLPDSSKTEKVTSETVNAMNRLLKLGRAFITAPLPGYNTEFASGIPGEIENGVLKELGVSLEGFNIEKFPEMSSKGTRREVLLEVKPKFEAGEDELNPGKSKAVLEFMLPKGSYATTVLREYMKVNPLQMSLEHHHHHH | soluble
SITKPQNKSAKLVDGELLVKASVESFGLEDEKYWFLVCCELSNGKTRQLKRYYQDFYDLQVQLLDAFPAEAGKLRDAGGQWSKRIMPYIPGPVPYVTNSITKKRKEDLNIYVADLVNLPDYISRSEMVHSLFVVLNNGFDREFERDENGSHHHHHH | soluble
MAHHHHHHMRRSALRGAARGNDNGAICRRYRDTSLCVVTSLTPSVHGGGSTSVVASSSSLSCPPRPSACYATAMHMSARHRLTNASILSNIKSMANEKDDLTSKLVYLRRRQEDAIAFAVKEKEMLAEKAKRQLAMEEEKLKVEARIEALISEAAQLGGPAAAQRMRDEIAKDKTRYVRSVDAFGDKTVRLQHTFAGLADNRIIHWWEYAYWNYIRYFFTQELLIAKDRFGNKFTVTWQFLKGREEQRRMYRKDSNKKHQPYGALATDERLWERWMRGHRGDPPSVAEEEHLRDYKKQFFGAMVLEDEEVEDALMRLMAHMNRASQTFQELDEDQVYGDAHRVAKPLRETERKPGEEMSARQKQKGATWTLGFARGDLFYNEEETQVMRTEMGHLFRNMEWQELEYKRQVRMNKQQPPHGKPPEGTTDPNTPDGDPMNHYWERTDLGIPYHDAVPDLTTPELERMRIESSQLEDERLAIRKELGLTDLGDIREGREPIKRDHAPFQPPPVSQRWKPKCWEESWGTGSGMKY | not soluble
MGVVLIDGSTVRSFVDDEEQFKKSVDERFAALDLNKDGVLSRSELRKAFESMRLLESHFGVDVVTPQDELTNLYDSIFEKFDTDQSGSVDLEEFRSEMKKIVLAIADGLGSCPITMVLDDDDDNFLKKAADLEASKLEKASS | soluble
MIHGIGVDLIEIDRIQALYSKQPKLVERILTKNEQHKFNNFTHEQRKIEFLAGRFATKEAFSKALGTGLGKHVAFNDIDCYNDELGKPKIDYEGFIVHVSISHTEHYAMSQVVLEKSAF | not soluble
MSTINFANREINFKIVYYGPGLSGKTTNLKWIYSKVPEGRKGEMVSLATEDERTLFFDFLPLDIGEVKGFKTRFHLYTVPGQVFYNASRKLILRGVDGIVFVADSAPNRLRANAESMRNMRENLAEYGLTLDDVPIVIQVNKRDLPDALPVEMVRAVVDPEGKFPVLEAVATEGKGVFETLKEVSRLVLARVAGGS | soluble
MYIGIDLGTSGVKVILLNEQGEVVAAQTEKLTVSRPHPLWSEQDPEQWWQATDRAMKALGDQHSLQDVKALGIAGQMHGATLLDAQQRVLRPAILWNDGRCAQECTLLEARVPQSRVITGNLMMPGFTAPKLLWVQRHEPEIFRQIDKVLLPKDYLRLRMTGEFASDMSDAAGTMWLDVAKRDWSDVMLQACDLSRDQMPALYEGSEITGALLPEVAKAWGMATVPVVAGGGDNAAGAVGVGMVDANQAMLSLGTSGVYFAVSEGFLSKPESAVHSFCHALPQRWHLMSVMLSAASCLDWAAKLTGLSNVPALIAAAQQADESAEPVWFLPYLSGERTPHNNPQAKGVFFGLTHQHGPNELARAVLEGVGYALADGMDVVHACGIKPQSVTLIGGGARSEYWRQMLADISGQQLDYRTGGDVGPALGAARLAQIAANPEKSLIELLPQLPLEQSHLPDAQRYAAYQPRRETFRRLYQQLLPLMA | soluble
MHHHHHHSSGVDLGTENLYFQSMVKPAGPTVEQQGEMARSGGRMLATLEPEQRAEIIHHLADLLTDQRDEILLANKKDLEEAEGRLAAPLLKRLSLSTSKLNSLAIGLRQIAASSQDSVGRVLRRTRIAKNLELEQVTVPIGVLLVIFESRPDCLPQVAALAIASGNGLLLKGGKEAAHSNRILHLLTQEALSIHGVKEAVQLVNTREEVEDLCRLDKMIDLIIPRGSSQLVRDIQKAAKGIPVMGHSEGICHMYVDSEASVDKVTRLVRDSKCEYPAACNALETLLIHRDLLRTPLFDQIIDMLRVEQVKIHAGPKFASYLTFSPSEVKSLRTEYGDLELCIEVVDNVQDAIDHIHKYGSSHTDVIVTEDENTAEFFLQHVDSACVFWNASTRFSDGYRFGLGAEVGISTSRIHARGPVGLEGLLTTKWLLRGKDHVVSDFSEHGSLKYLHENLPIPQRNTN | soluble
MTVATYEVEKQFLTYVKKIQNYGEALSLMFWDLRTGAPKKGVDQRSEVIGMLSSEVFAMSTSDEMGNYLTELEALISEDKLSETTKKMVEECRKEYDRNKKIPQAEYEAYVKLEAKAESVWEEAREKSDFEMFRPYLEQIVEFKKKFITYWGYETYKYNTLLDMYEPGITVEVLDHVFGQLRERIVPLVKEISESQKRLKTSALSEHFSKEKQKNFTLELLKQLNYDFEAGRLDETVHPFEITLNRGDVRITTRYDEKDFRMAVFGTIHECGHAVYEQNIAEKFEGTPLCSGTSMGIHESQSLFFENFIGRNKSFWKKNYDLLKEYSDGQFNDISVDEFYDAINESKPSFIRIEADELTYPLHVMVRYELEKELFDGTLQVKDLPAAWNDKMEAYLGIRPANDAQGVLQDVHWAGGSFGYFPSYALGYMYAAQFKQRMVKDIPNFDALLEEGNVTPIREWLTENIHQYGKTKKPLEILEDVTGEGLNANYLADYLEAKYREIYEL | not soluble
MAHHHHHHMMKEETLNSDNSSAEVSVESPSFSFNCAHFIAYNGFRETLHGHNYNVSLKVRGYVRDDGYVIDFSILKEKVKKVCNKLDHHFILPIYSDVLKFENVKNNIKIICEDNSEYSFPERDCIKLPIKHSSTEEIGQYILNQLIEEMDVSLLKSRHIHYIEISVSESPTQKAIVHKYI | soluble
MSLAADYTEQDAMRVQAVKTYIDNVLQEGRSQIKTTPLLADGINTTTRKPVEWIYPDGRTATISNFANQQNFLRALTAMSVVTEDQRYQLEAVRITRYFMDNFIADNGLFYWGGHRFVNLDTLELEGPQNKNSVHELKNHYPYYPFLYHVDPHATERYIKAFWQAHVEDWQSLDMGRHGSYSKNYDDKVFHRPIPASLVDQSKLPIMPETKGLTFINAGSDLIYAAYQLDWLAPSANAQGSAAWGQYLMTQYKLAKHPKTGAPVYQFTSPKKREWPPQSDKDTNSKYGDRAARQFGPELGNIAREGNVLFKSNDKSIVFNNALIELHLAEQRNDAAIREQVVDALLNFYRLAYNPENGTIKPIFSDGTSIEGIPLARDGYYGPKGRVFNAHKPKTEEYLLPILRAYRLQADPELWQLAANMTHHYGWGSLGNDAKAKPTLNMQLSSVSPMTLFSAIELYQITQQPEYLEFARAAADKLVEKRFVRGYFLANPRYLNASIDAIEPLALLTLDATLKGKTAQVAPYLSGSGYIHGEFAGKENAYDTNEIYKQTREGHHHHHH | soluble
MGSDKIHHHHHHMERDMICTPISYQNKTSAQTFSNFLKHTRTENNLSQEDLCGLLRQKSCLFDTLDSITISRWERGVNIPSLAKQSEIVEIFGSELFDIYREDKKFINEGLALINLFESNIERSDHPYYRNTPYRVEFIESHHHNFMALLQLSLVYESNPRLSFVSRNLSQPFFHGLSLVVAFSSGDQIVGHSLFCRSQGKIALEFMNDEVDLFEVINHNSQALPDTLMVFSSFGVTPYIENYMMSVYLNELAASRSLKFLSFNICDESLKRKLTQFKLPIFKVRTIEGCCKPIKNYSFFSSRTEVMANRNLLKLSVIPSSKSQTIDPIFFMQLETPI | not soluble
MDCMRKLDRVDMQLVKILSENSRLTYRELADILNTTRQRIARRIDKLKKLGIIRKFTIIPDIDKLGYMYAIVLIKSKVPSDADKVISEISDIEYVKSVEKGVGRYNIIVRLLLPKDIKDAENLISEFLQRIKNAENVEVILISEVRKFEII | soluble
METVPGGRWVAEIYGCDVDILEDPKMVEAALVDAVMRLGAPRDSVQSVVYKFHPQGLSAAVVSPVAAVMIHTWPEDNASATLDLYFYRDGVDPEEVLKGLTRAFGAKEESAFRYWRGTEHAIKRRGFGAEKAE | soluble
MGSDKIHHHHHHMSIKSGFVALAGKPNVGKSTFINAVMGRKVVIVSDKPQTTRNRINCIYTDKDSQIIFVDTPGIHKPLHRLGEYMVKAAVQALKGVDLVLFMLDAADGFTKTDEHVAKIVNDSGTKTIIAVNKIDVAGEEKAKAVGELAKSMVENVVSVHYISALKGEGVFEVLEKIKEELPEGPQYYPEDMVTDRPLSFMAAEIIREKIFHLTRQEVPHSTAVVIEEIKDRPNGVLYIRANIYVERDSQKGILIGKNGSMIKKIGTLAREELEFLVGRKVYLDLNVKVKEKWREKDFIILQEIGLKDDIK | not soluble
MGSDKIHHHHHHMKSLLAIYPGSIVSEELCIREGCLCFFDESNQRYISIPKTEISEKEVLVLQSFLTPADEGNQLSMKSPEENKWFSFLFSRGELPAYIKKRTRFVHFHLFGKIERTSFTEAVRHFWPVSFVIVWIHEDRGVIVEQESEAAAEKDELESLAKVLESDFYFSVRFYAGRFYEPDECLRKHYAREQAYFLFAEKRLPQVQSVTFEMIFPFLLLETEKEKLETLLSEEAELLFGSESELRKTIKLFIENNSNVTLTAKKLHLHRNSLQYRIDKFIERSGIDIKSYKGALLAYFICLQNESSE | not soluble
